Experiment: yeast display, Sf9 membrane polyspecificity reagent, FACS + sequencing; frameworks hold sequencing errors
Method in brief: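 A nanobody's polyreactivity label depends on the gate it was sorted from. Yeast display cells were stained with 10% biotinylated, detergent-solubilized Sf9 membrane reagent for 1 hour at 4 °C, enriched on streptavidin microbeads and sorted by FACS. The low and high (top ~1%) gates were set on anti-HA fluorescence for expression and streptavidin fluorescence for reagent binding.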

Row | Sequence | polyreactivity (PSR sort gate)
1 | QVQIVESGGGLVQAGGSLRLSCAASGSNFLFYVMGWYTQAPVKERELVAAINTGVSTNYADSVKGRFTISRDNAKNTVYLQLNSLKPEDTAVYYCNALPYTSDGRGGYWGQGSQVTVSS | low polyreactivity
2 | QFQLLESGGGLVQAAGSLRLSCAASGGIFRNYAMGWYRKAPGKERELVAAITSSGTSTYYADSVNGRFTISRDNAKNTVYLQMNSLKPEDTAVYYFAADVTARYDYWGQGTQVTVSS | high polyreactivity
3 | QVQLVESGGGLVQAGGSLRLSCAASGFTFVINDMGWYRQAPGKERELVADITSGGDTYYADSVKGRFTISRDNAKNTVYLQMNSLKAEDTAVYYCAADIYPDWIYLLYGYWGQGTQVTVSS | low polyreactivity
4 | QFKLVESGGGLVQAGGSLRLICAASGITLNRNAMGRYRQAPGKEMELVARISRRGGTTYYADSVKGRFTISRDKAKNTVYLQMNSLKPEDTAVYYCNAGPYGGNPFDYWGQGTQVTVSS | high polyreactivity
5 | QVQLVESGGGLVQAGGSLRLSCAASGSIFSDNVMGGYRQAPGKERELVAAIRDGDTTNYADSVKGRFTISRDNAKNTVYLQMNSLKPEDTAVYYCATRNTWYHRGYDYWGQGTQVTVSS | low polyreactivity
6 | QVQLVESGGGLVQAGGSLRLSCAASGFTFTYNTMGWYRQAPGKERELVAAISRSGGSTYYADSVKGRFTISRDNAKNTVYLQMNSLKPEDTAVYYCAKQRRDYNGGYWGQGTQVTVSS | high polyreactivity
7 | QVQLVESGGGLVQAGGSLRLSCAASGRTFVDYDMGWYRQAPGKERELVADINSGGSTYYADSVKGRFTISRDNAKNTVYLQMNRLKPEDTAVYYCAADDGWGYISSYDYEYWGQGTQVTVSS | high polyreactivity
8 | QVQLVESGGGLVQAGGSLRLSCAASGRTFSYNARGWYRPAPGKEMELVASISSSGTSTSYADSVKGRFTISRDYAKNTVYLQMNSLKPEDTAVYYCATVRYPYWYSGPQNSRGYWGQGSQVTVSS | high polyreactivity
9 | QVQLVESGGGLVQAGGSRRLSCAASGRSFYGNAMGWYRQAPGTERECVAGISWRGGRTYYADSVKGRFTISRDNANNTVYLQMNSLKPEETAVYYCAASAGYRGRSGYEYWGQGTQVTVSS | high polyreactivity
10 | QVQLVESGGGLVQAGGSLRLSCAASGFTIGDYAMGWYRQAPGKERELVAAITYSGGSTYYADSVKGRFTISRDNAKNTVYLQMNSLKPEDTAVYYCNADYASQSGYDYWGQGTQVTVSS | low polyreactivity
11 | QVQLVESGGGLVQAGGSLRLSCAASGFTFHKNAMGWYRQAPGKERELVAAISRSGGRTYYADSVKGRFTISRDNAKNTVYLQMNSLKPEDTAVYYCNATPLLWAGYDYWGQGTQVTVSS | high polyreactivity
12 | QVQLVESGGGLVQAGGSLRLSCAASGFTFGGYAMGWYIQAPGKERELVSAISGSGGRTYYADSVKGRFTISRDNAKNTVYLQMNSLKPEDTAVYYCATDGYWQSNGAFYYVARHGGYCGQGTQVTVSS | low polyreactivity
13 | QVQLVESGGGLVQAGGSLRLSCAASGIIFKIYAMGWYRQAPGKERELVAAISWRGGSTYYADSVKGRFTISRDNAKNTVYLQMNSLKPEDTAVYYCAAARGYRTGYGYWGQGTQVTVSS | high polyreactivity
14 | QVQLVESGGRLVQAGGSLRLSCAASGSIISWYAMGWYRQAPGKERELVAAISNSGGSTYYADSVKGRFTISRDNAKNTVYLQMNSLKPEDTAVYYCAAYDGDTYDWGQGTQVTVSS | high polyreactivity
15 | QVQLVESGGGLVQAGGSLRLSCAASGFTFRYYVMGWYRQAPGKERELVARISTGASTHYADSVKGRFTISRDNAKNSVYLQKNSLKPEDTAVYYCASDHPAFGPGYSFDYWGLGTQVTVSS | low polyreactivity
16 | QVQLVESGGGLVQAGGSLRLSCAASGSTFRFYTMGWYRPAPGKERELVATISRGGSTYADSVKGRFTISRDNAKNTVYLQMYSLKPEDTAVYYCAKRGYSSWPYDYWGQGTQVSVSS | low polyreactivity
17 | QVQLVESGGGLVQAGGSLRLSCAASGSTFPWYVMGWYRQAPGKERELVAAISWSGGRTYYADSVKGRFTISRDNAKNTVYLQMNSLKPEDTAVYYCAADLSYWRGGHSRNYWGQGTQVTVSS | low polyreactivity
18 | QVQLVESGGGLVQAGGSLRLSCAASGSIFLRYAMGWYRQAPGKERELVAGITSGGSTNYADSVKGRFTISRDNAKNCVYLQMNSLKPEDTAVYYCNKDLPDWGHEWNGDSWGQGTQVTVSS | low polyreactivity
19 | QVQLVESGGGLVQAGGSLRLSCAASGSIFYANAMGWYRQAPGKERELVAAISRSGGRTYYADSVKGRFTISRDNAKNTVYLQMNSLKPEDTAVYYCNAVYVSYTYQQTRPRYYYWGQGTQVTVSS | high polyreactivity
20 | QVQLVESGGGLVQAGGSLRLSCAASGRIFRRYTIGWYRQAPGKEWELVAGISSGGSTKYADSVKGRFTISRDNAKNTVYLQMNSLKPEDTAVYYCNRRCPIYGSRFGYYYWGQGTQVTVSS | high polyreactivity
21 | QVQLVESGGGLVQAGGSLRLICAASGRIFSSYAMGWYRQAPGKERELVAAISRGGGRTYYADSVKGRFTISRDNAKNTVYLQMNSLKPEDTAVYYCAVRLYYSIRYYYWGQGTQVTVSS | high polyreactivity
22 | QVQLVESGGGLVQAGGSLRLSCAASGSTVYHYAMGWNRQAPGKERELVAAISFSGGRTSYADSVKGRFTISRDNAKNTVDLQMNSLKPEDTAGYYCAAKYIRFARSRDYWGHGTQVTVSS | high polyreactivity

Row | Sequence | polyreactivity (PSR sort gate)
23 | QVQLVESGGGLVQAGGSLRLSCAASGNIFLYYAMGWSRQAPGKERELVADIDSSGASTYYADSVKGRFTISRDNAKNNVYLQMNSLKPEDTAVYYCAAEFHWWYAGYDYGYWGQGTQVTVSS | low polyreactivity
24 | QVQLVESGGGLVQAGGSLRLSCAASGYIFGSYAMGWYRQAPGKERELVASITRVDSTNYADSVKGRFTISRDNAKNTVYLQMNSLKAEDTAVYYCAADITTPAYATYDYWGQGTQVTVSS | low polyreactivity
25 | QVHLVESGGGLVQAGGSLRLSCAASGRTFASNPMGWYRQAPGKERELVAAISARGGSTYYADSVKGRFTISRDNAKNTVYLQMNSLKPEDTAVYYCAAYLGYPYGRDYWGQGTQVTVSS | high polyreactivity
26 | QVQLVESGGGLVQAGGSLRLSCAASGSTYPYAMGWYRQAPGKERELVAAIRWRGGSTKYADSVKGRFTISRDNAKNTVYLQMNSLKPEDTAVYYCARRWYYVLHGYWGQGTQVTVSS | high polyreactivity
27 | QVQHVESGGGLVQAGGSLRLSCAASGFIIQGNAMGWYRQAPGKERELVAAISSSVSTYYADSVKGRFTISRDNAKNTVYLQMNSLKPEDTAVYYCNAGFPLSLWLGDYWGQGTQVTVSS | low polyreactivity
28 | QVQLVESGGGLVQAGGSLRLSCAASGSILASNAMGWYRQAPGKDRELVAAITTSGGSTYYADSVKGRFTISRHNAKNTVYLQMNSLKPEDTAVYYCNAEYWLGRWLRYGYWGQGTQVTVSS | high polyreactivity
29 | QVQLVESGGGLVQAGGSLRLSCAASGSTFTLNAMGWYRQAPGKECELVADISWSSGRTYYADSVKGRFTISRDNAKNTVYLHMNSLKPEDTAVYYCATDDFWNVKFYAYYPEFDYWGQGTQVTVSS | low polyreactivity
30 | QVQLVESGGGLVQAGGSLRLSCAASGYIFSTYTMGWYRQAPGKERELVATITVSGGSTYYADSVKGRFTISRDNAKNTVYLQMNSLKPEDTAVYYCAALRYTFAGRFDYWGQGTQVTVSS | high polyreactivity
31 | QVQLVESGGGLVQAGGSLRLSCAASGNTFRGYAMGWSRQAPGKEMELVAAITSGGRTYYADSVKGRFTISRDNAKNTVYLQMNSLKPEDTAVYYCNARQFAGDEWGQGTLVTVSS | high polyreactivity
32 | QVQHVESGGGLVQAGGSLRLSCAASGSTFWYAMGWYRQAPGKERELVAAITARGGRTYYADSVKGRFTISRDNAKNTVYLQMNSLKPEDTAVYYCARLSYAGGQWIIAKYDYWGQGTQVTVSS | high polyreactivity
33 | QVQLVESGGGLVQAGGSLRLSCAASGRTFGIYAMGWYRQATGKERELVAGITWTGGSTYYADSVKGRFTISRDNAKNTVYLQMNSLKPEDTAVYYCAADFYVLQFYGLDYGYWGQGTQVTVSS | low polyreactivity
34 | QVQLVESGGGLVQAGGSLRLSCAASGFTSGYNVMGWYRQEPGKERELVAAISWRGTSTYYADSVKGRFTISRDNAKNTVYLQMNSLKPEDTAVYYCAADRYWRLSGYEYWGQGTQVTVSS | high polyreactivity
35 | QVQLVESGGGLVQAGGSLRLSCAASGLIFSVYVMGWYRQAPGKERELVAGITTGGSTKYADSVKGRFTISRDNAKNTVYLQMNSLKPEDTSVYYCAVGKYNYRGSWDYYWGQGTQVTVSS | high polyreactivity
36 | QVQLVESGGGLVQAGGSLRLSCAASGLTFGRNAMGWYRQSPGKERELVAAITFNGGSTYYADSVKGRFTISRDNAKNTVYFQMNSLKPEDTAVYYCAARLWRRSRFDYWGLGTQVTVSS | high polyreactivity
37 | QVQLVESGGGLVQAGGSLRLSCAASGRIFQYNVIGWYRQARWKERELVAAISSGGNTYYADSVKGRFTISRDNAKNTVYLQMNSLKPEDTSFYYCAADHYVPWPNYDYDYWGQGTQETVSS | low polyreactivity
38 | QVQLVESGGGLVQAGGSLRLSCAASGFTFYDNAMGWYRQAPGKERELVAAISWSGGSTYADSVKGRFTISRDNAKNTVYVQMNSLKPEDTAVYYCNADAWLASGYRYDYWGQGTQVTVSS | low polyreactivity
39 | QVQLVESGGGLVQAGGSLRLSCAASGLTFYVYAMGWYRQAPGKERELVAAISSGGRTYYADSVKGRFTISRDNAKNTVYLQMNSLKPEDTAVYYCAAVRHRNYGYWGQGTQVTVSS | high polyreactivity
40 | QVQLVESGGPLVQAGGSLLLSCAASGFTFTVYAKGWYRQAPGKERELVAAITYNGGSTYYADSVKGRFTISRDNAKNTVYLQMNSLKPEDTAVYYCAAEVFLRSLGYWYDFWGLGTQVTVSS | high polyreactivity
41 | QVQLVESGGGIVQAGGSLRLSCAASGFTFTRYAMGSYRQAPGKERELVATITKRGGSTYYADSVKGRFTISRDNAKNTVYLKMNSLKPEDTAVYYCAADGASRALYDYWGQGTQVTVSS | high polyreactivity
42 | QVQLVESGGGLVQAGGSLRVSCAASGTTFPRNAMGWYRQAPGKERELVATITSAGGGTYYADSVKGRFTISRDNAKNSVYLQMNSLKPEDTAVYYCNADGPAGDAFDSWGQGTQVTVSS | low polyreactivity
43 | QVQLVESGGGLVQAGGSLRLTCAASGRIFNYYAMGWYRQAPGKERELVAVITYSAGRTYYADSVKGRFTLSRDNAKNTVYLEMNSLKPEDTAVYYCNADGWVSVSKHYYYWGQGTQVTVSS | low polyreactivity
